Measurements reported in patent US20090136547A1, “ZWITTERIONIZATION OF CAPSULAR SACCHARIDES” (NOVARTIS VACCINES AND DIAGNOSTICS SRL, priority 2005, published 2009).
Ends that are not written are not given here. * marks the point of attachment. Palmitoyl = CCCCCCCCCCCCCCCC(=O)*

Biological target: T1, TLR2 receptor (Homo sapiens, UniProt O60603)
T1 construct: endogenous in cells; host or cells: purified monocytes
Test: Monocyte activation (TNFα, CD80/MHC-II) in absence or presence of anti-TLR2 antibody
Type: cell-based
Details: FIG. 29 and FIG. 30

T1 sequence (O60603 21-784): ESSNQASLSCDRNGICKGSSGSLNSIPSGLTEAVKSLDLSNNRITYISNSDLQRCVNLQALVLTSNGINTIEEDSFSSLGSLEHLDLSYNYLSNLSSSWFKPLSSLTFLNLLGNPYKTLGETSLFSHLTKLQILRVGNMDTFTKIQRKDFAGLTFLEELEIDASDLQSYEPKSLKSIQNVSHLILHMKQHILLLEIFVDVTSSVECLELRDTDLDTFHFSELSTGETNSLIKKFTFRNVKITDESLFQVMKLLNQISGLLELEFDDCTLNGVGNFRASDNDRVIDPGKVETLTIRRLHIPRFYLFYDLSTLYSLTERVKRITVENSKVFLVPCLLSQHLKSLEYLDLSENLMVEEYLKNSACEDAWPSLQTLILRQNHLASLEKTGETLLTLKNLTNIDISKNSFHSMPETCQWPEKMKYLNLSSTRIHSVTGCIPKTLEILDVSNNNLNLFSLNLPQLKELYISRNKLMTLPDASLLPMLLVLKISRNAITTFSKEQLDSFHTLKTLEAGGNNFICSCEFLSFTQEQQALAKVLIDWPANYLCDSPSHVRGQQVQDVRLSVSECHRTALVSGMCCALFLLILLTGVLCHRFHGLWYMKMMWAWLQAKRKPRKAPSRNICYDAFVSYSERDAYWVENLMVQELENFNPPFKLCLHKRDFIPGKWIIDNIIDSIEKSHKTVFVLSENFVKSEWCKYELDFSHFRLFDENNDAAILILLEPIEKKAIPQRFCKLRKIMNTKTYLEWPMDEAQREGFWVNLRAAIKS

effect of anti-TLR2 antibody on activation (TNFα assay, CD80/MHC-II assay): able to block activation
Substance: N-palmitoyl-S-[2,3-bis(palmitoyloxy)-(2R,S)-propyl]-(R)-cysteinyl-seryl-(lysyl)(3)-lysine (Palmitoyl-C(2,3‑bis(palmitoyloxy)‑(2R,S)‑propyl)SKKKK) [PAMcsk, synthetic lipopeptide positive control]
